# Results published in US20170362286A1.
# No end group written: not given here.
# Biological target: mKv1.3 (murine voltage-gated potassium channel Kv1.3) (mouse) (UniProt P16390)
# Assay: cell-based or functional assay
# Sequence of mKv1.3 (murine voltage-gated potassium channel Kv1.3) (mouse) (P16390 whole entry): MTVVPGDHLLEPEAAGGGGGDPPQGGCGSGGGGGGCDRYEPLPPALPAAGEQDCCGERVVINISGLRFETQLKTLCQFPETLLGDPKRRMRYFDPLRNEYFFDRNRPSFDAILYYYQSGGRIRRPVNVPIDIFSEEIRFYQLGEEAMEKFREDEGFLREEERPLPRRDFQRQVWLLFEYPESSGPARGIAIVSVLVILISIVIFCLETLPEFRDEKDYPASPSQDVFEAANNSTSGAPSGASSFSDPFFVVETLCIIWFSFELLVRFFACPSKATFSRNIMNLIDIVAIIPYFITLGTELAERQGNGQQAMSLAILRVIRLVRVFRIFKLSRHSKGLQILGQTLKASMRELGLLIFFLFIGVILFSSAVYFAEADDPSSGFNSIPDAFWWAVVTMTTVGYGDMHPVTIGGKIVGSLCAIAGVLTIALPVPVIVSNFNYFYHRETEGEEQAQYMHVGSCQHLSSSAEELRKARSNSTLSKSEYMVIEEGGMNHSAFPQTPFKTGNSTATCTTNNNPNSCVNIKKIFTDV
binder,measurement,value
EWSSRSCIDTIPKSRCTAFQCKHSMKYRLSFCRKTCGTC (not fully specified; ends and bridges not checked) [[EWSS]ShK],"IC50, potency against Kv1.3 channels (patch clamp)",0.033 nM
same,"Selectivity (for Kv1.3 over Kv1.1, ratio of IC50s)",158 fold
